T1: PTDHI (phosphite dehydrogenase with a C-terminal RIDD tag)
T1 chain: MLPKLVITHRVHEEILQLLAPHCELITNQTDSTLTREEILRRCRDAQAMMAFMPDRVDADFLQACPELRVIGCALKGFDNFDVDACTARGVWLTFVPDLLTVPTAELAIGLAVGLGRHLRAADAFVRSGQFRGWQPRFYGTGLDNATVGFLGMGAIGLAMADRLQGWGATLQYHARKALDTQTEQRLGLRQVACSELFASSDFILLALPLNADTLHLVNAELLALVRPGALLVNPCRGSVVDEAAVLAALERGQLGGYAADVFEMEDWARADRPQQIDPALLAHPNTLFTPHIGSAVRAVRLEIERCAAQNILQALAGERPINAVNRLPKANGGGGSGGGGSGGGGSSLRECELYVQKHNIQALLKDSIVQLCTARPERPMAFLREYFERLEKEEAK

B1: PAMOI (phenylacetone monooxygenase with a C-terminal RIDD tag) (enzyme)
chain: MAGQTTVDSRRQPPEEVDVLVVGAGFSGLYALYRLRELGRSVHVIETAGDVGGVWYWNRYPGARCDIESIEYCYSFSEEVLQEWNWTERYASQPEILRYINFVADKFDLRSGITFHTTVTAAAFDEATNTWTVDTNHGDRIRARYLIMASGQLSVPQLPNFPGLKDFAGNLYHTGNWPHEPVDFSGQRVGVIGTGSSGIQVSPQIAKQAAELFVFQRTPHFAVPARNAPLDPEFLADLKKRYAEFREESRNTPGGTHRYQGPKSALEVSDEELVETLERYWQEGGPDILAAYRDILRDRDANERVAEFIRNKIRNTVRDPEVAERLVPKGYPFGTKRLILEIDYYEMFNRDNVHLVDTLSAPIETITPRGVRTSEREYELDSLVLATGFDALTGALFKIDIRGVGNVALKEKWAAGPRTYLGLSTAGFPNLFFIAGPGSPSALSNMLVSIEQHVEWVTDHIAYMFKNGLTRSEAVLEKEDEWVEHVNEIADETLYPMTASWYTGANVPGKPRVFMLYVGGFHRYRQICDEVAAKGYEGFVLTGGGGSGGGGSGGGGSSLRECELYVQKHNIQALLKDSIVQLCTARPERPMAFLREYFERLEKEEAK
B2: PTDHI (phosphite dehydrogenase with a C-terminal RIDD tag) (enzyme)
chain: T1 chain
modifications: PTDH taken as the thermostable A176R variant of PDB 4E5P (cited in Figure 1); the exact pCRE2 variant and C-terminus are not printed. RIDD taken as the conventional RI-alpha docking domain …

Key:
[1] = target: the molecule itself; test: SEC; each purified tagged protein alone, in the absence of any other tagged protein; Superdex 200 (10/300), 50 mM Tris–HCl with 150 mM NaCl, pH 7.5
[2] = target: T1, PTDHI (phosphite dehydrogenase with a …); test: as above; conditions: both partners purified

Row | Binder | stoichiometry N [1] | stoichiometry N [2]
1 | B1 | 2 | 
2 | B2 |  | 2

Source: article PMC8234031, “Modular Assembly of Phosphite Dehydrogenase and Phenylacetone Monooxygenase for Tuning Cofactor Regeneration” (Biomolecules, 2021)
